In this experiment the target is E47 (mouse (endogenous in palatal shelves)) (UniProt P15806).
Sequence of UniProt P15806 (P15806 whole entry): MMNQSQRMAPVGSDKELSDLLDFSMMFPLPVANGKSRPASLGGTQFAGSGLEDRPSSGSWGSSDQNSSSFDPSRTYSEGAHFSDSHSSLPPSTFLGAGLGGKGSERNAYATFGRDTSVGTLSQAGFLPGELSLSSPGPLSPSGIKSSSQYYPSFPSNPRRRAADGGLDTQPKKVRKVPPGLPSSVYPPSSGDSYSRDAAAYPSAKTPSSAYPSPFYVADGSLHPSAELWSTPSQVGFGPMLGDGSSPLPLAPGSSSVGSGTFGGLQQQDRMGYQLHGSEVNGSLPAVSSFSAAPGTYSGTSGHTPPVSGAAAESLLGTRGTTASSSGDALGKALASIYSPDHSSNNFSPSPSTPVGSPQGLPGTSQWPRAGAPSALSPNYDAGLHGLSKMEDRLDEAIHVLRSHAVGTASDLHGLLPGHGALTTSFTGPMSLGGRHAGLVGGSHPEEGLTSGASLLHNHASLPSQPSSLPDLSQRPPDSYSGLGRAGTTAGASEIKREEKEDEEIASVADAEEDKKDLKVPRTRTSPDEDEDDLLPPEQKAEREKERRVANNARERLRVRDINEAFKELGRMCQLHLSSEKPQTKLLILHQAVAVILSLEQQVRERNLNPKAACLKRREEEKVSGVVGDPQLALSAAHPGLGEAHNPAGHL

B1: Twist1 (natural protein)
chain: MMQDVSSSPVSPADDSLSNSEEEPDRQQPASGKRGARKRRSSRRSAGGSAGPGGATGGGIGGGDEPGSPAQGKRGKKSAGGGGGGGAGGGGGGGGGSSSGGGSPQSYEELQTQRVMANVRERQRTQSLNEAFAALRKIIPTLPSDKLSKIQTLKLAARYIDFLYQVLQSDELDSKMASCSYVAHERLSYAFSVWRMEGAWSMSASH
In turn, B1 displayed a luciferase activity of the Snail1 promoter (1.7KSnLuc) in MDCK cells transfected with forced Twist1/E47 (T/E) heterodimers, compared with cells transfected with Twist1 alone of 2 fold.

For the origin of these results see article PMC3575576.
